To fix the notation:
B1: Tryptophan synthase alpha chain, P0A877 (parent)
chain: MERYESLFAQLKERKEGAFVPFVTLGDPGIEQSLKIIDTLIEAGADALELGIPFSDPLADGPTIQNATLRAFAAGVTPAQCFEMLALIRQKHPTIPIGLLMYANLVFNKGIDEFYAQCEKVGVDSVLVADVPVEESAPFRQAALRHNVAPIFICPPNADDDLLRQIASYGRGYTYLLSRAGVTGAENRAALPLNHLVAKLKEYNAAPPLQGFGISAPDQVKAAIDAGAAGAISGSAIVKIIEQHINEPEKMLAALKVFVQPMKAATRS

This series covers variants of B1. The following applies: Escherichia coli (strain K12); pH 7.8; 25 °C; Urea; CD; Potassium phosphate 10 mM; transition: 3; reversible: yes (>90%); structure 1WQ5; whole UniProt chain shown.

“And” between values parts separate entries of the source, which are not always exact repeats. Equal values may be shown once.

In the case of MERYESLFAQLKERKEGAFVPFVTLGDPGIEQSLKIIDTLIEAGADALELGIPFSDPLADGPTIQNATLRAFAAGVTPAQCFEMLALIRQKHPTIPIGLLMYANLVFNKGIDEFYAQCEKVGVDSVLVADVPVEESAPFRQAALRHNVAPIFICPPNADDDLLRQIASYGRGYTYLLSRAGVTGAENRAALPLNHLVAKLKEYNAAPPLQEFGISAPDQVKAAIDAGAAGAISGSAIVKIIEQHINEPEKMLAALKVFVQPMKAATRS [G211E], the denaturant m value was 3 kcal/mol/M and 1.5 kcal/mol/M; the “denaturant midpoint (higher = more stable)” value (from here on “denaturant midpoint”) is 2.73 M and 3.72 M; the unfolding free energy is 8.1 kcal/mol and 5.4 kcal/mol.
For the variant MERYESLFAQLKERKEGAFVPLVTLGDPGIEQSLKIIDTLIEAGADALELGIPFSDPLADGPTIQNATLRAFAAGVTPAQCFEMLALIRQKHPTIPIGLLMYANLVFNKGIDEFYAQCEKVGVDSVLVADVPVEESAPFRQAALRHNVAPIFICPPNADDDLLRQIASYGRGYTYLLSRAGVTGAENRAALPLNHLVAKLKEYNAAPPLQGFGISAPDQVKAAIDAGAAGAISGSAIVKIIEQHINEPEKMLAALKVFVQPMKAATRS [F22L], the denaturant m value was 3.1 kcal/mol/M and 1.2 kcal/mol/M; the “denaturant midpoint” value is 2.54 M and 3.62 M; the unfolding free energy was 7.9 kcal/mol and 4.2 kcal/mol.
Take MERYESLFAQLKERKEGAFVPFVTLGDPGIEQSLKIIDTLIEAGADALELGIPFSDPLADGPTIQNATLRAFAAGVTPAQCFEMLALIRQKHPTIPIGLLMYANLVFNKGIDEFYAQCEKVGVDSVLVADVPVEESAPFRQAALRHNVAPIFICPPNADDDLLRQIASYGRGYTYLLSRAGVTGAENRAALPLNHLVAKLKEYNAAPPLQGFGISAPDQVKAAIDAGAAGAISDSAIVKIIEQHINEPEKMLAALKVFVQPMKAATRS [G234D]: the “ddG of mutation (higher = less stable)” value was -1.4 kcal/mol and -2 kcal/mol; the denaturant m value is 2.6 kcal/mol/M and 1.8 kcal/mol/M; the “denaturant midpoint” value was 2.78 M and 3.99 M; the unfolding free energy is 7.1 kcal/mol and 7 kcal/mol.
On to MERYESLFAQLKERKEGAFVPFVTLGDPGIEQSLKIIDTLIEAGADALELGIPFSDPLADGPTIQNATLRAFAAGVTPAQCFEMLALIRQKHPTIPIGLLMYANLVFNKGIDEFYAQCEKVGVDSVLVADVPVEESAPFRQAALRHNVAPIFICPPNADDDLLRQIASYGRGYTYLLSRAGVTGAENRAALPLNHLVAKLKEYNAAPPLQGFGISAPDQVKAAIDAGAAGAISKSAIVKIIEQHINEPEKMLAALKVFVQPMKAATRS [G234K], for which the denaturant m value was 2.3 kcal/mol/M and 1.2 kcal/mol/M; the “denaturant midpoint” value was 2.65 M and 3.81 M; the unfolding free energy was 6.2 kcal/mol and 4.7 kcal/mol.
As for MERYESLFAQLKERKEGAFVPFVTLGDPGIEQSLKIIDTLIEAGADALMLGIPFSDPLADGPTIQNATLRAFAAGVTPAQCFEMLALIRQKHPTIPIGLLMYANLVFNKGIDEFYAQCEKVGVDSVLVADVPVEESAPFRQAALRHNVAPIFICPPNADDDLLRQIASYGRGYTYLLSRAGVTGAENRAALPLNHLVAKLKEYNAAPPLQGFGISAPDQVKAAIDAGAAGAISGSAIVKIIEQHINEPEKMLAALKVFVQPMKAATRS [E49M], the “ddG of mutation (higher = less stable)” value is -3.7 kcal/mol and -2 kcal/mol; the denaturant m value was 2.8 kcal/mol/M and 1.4 kcal/mol/M; the “denaturant midpoint” value is 3.33 M and 4.92 M; the unfolding free energy was 9.4 kcal/mol and 7 kcal/mol.

Values taken from FireProtDB (doi:10.1021/bi00358a035).
